Experimental data: publication PMC8248988, “A signal capture and proofreading mechanism for the KDEL-receptor explains selectivity and dynamic range in ER retrieval” (eLife, 2021)

System: PDI
Experiment: ER chaperone secretion assay, PDI
Format: cell-based, human
Source text: Figure 1. ER retrieval signal abundance and affinity are not correlated. (a) Sequence logos for ER resident proteins with C-terminal KDEL retrieval signals and variants thereof calculated using frequency or protein abundance ([Itzhak et al., 2017]; [Itzhak et al., 2016]). (b) Combined cellular concentrations of ER resident proteins with canonical KDEL, RDEL, and HDEL retrieval sequences in HeLa cells and mouse brain. (c) Competition binding assays for [^3H]-TAEHDEL and unlabelled TAEKDEL, TAERDEL, and TAEHDEL to the KDEL receptor. IC50 values for the competing peptides were used to calculate the apparent KDwith the Cheng-Prusoff equation ([Cheng and Prusoff, 1973]). (d) Endogenous KDEL receptor redistribution was measured in COS-7 cells in the absence (-ligand) or presence of K/R/H/A/DDEL (mScarlet-xDEL^sec). TGN46 was used as a Golgi marker. Scale bar is 10 µm. (e) The mean difference for K/R/H/A/DDEL comparisons against the shared no ligand control are shown as Cummings estimation plots. The individual data points for the fraction of KDEL receptor fluorescence in the Golgi are plotted on the upper axes with sample sizes and p values. Figure 1—source data 1. Source data for the ligand-induced KDELR receptor retrieval assays in Figure 1e. Figure 1—figure supplement 1. Abundance of ER resident proteins and chaperones in human cells and mouse brain. (a) The mean concentration of ER resident chaperones with the indicated ER retrieval sequence variant is plotted in the bar graph ([Itzhak et al., 2017]; [Itzhak et al., 2016]). […] Endogenous ER chaperone secretion was measured by western blotting after challenge with different retrieval signals, and plotted as a bar graph showing mean ± SEM (n = 3). […] (a) Distribution of human KDELR1 and (b) KDELR2 was measured in COS-7 cells in the absence (-ligand) or presence of K/R/H/A/DDEL retrieval signals (K/R/H/A/DDEL^sec). […] The fraction of KDEL receptor localised to the Golgi was measured before (no ligand) and after challenge with different retrieval signals as indicated. […]

## ADEL [pcDNA3.1 hGHss-mScarlet-H. sapiens BiP639-654K651A (ADEL^SEC), secreted mScarlet fusion with human BiP C-terminus, ADEL signal]
mean, HeLa S3, 24 hr, Western blot densitometry
  PDI secretion after challenge with retrieval signal: 6.6
Replicate 1
  PDI secretion after challenge with retrieval signal: 7.3
Replicate 2
  PDI secretion after challenge with retrieval signal: 6.0
